Results as given in patent publication US20250206797A1.
Changes are numbered by the printed parent chain.

B1: fusion protein 6 (insulin analog 5 + L2 + IgG2 Fc1) (Fc fusion)
chain: FVNQHLCGEHLVEALYLVCGERGFHYGGGGGSGGGGGIVEQCCESICSLEQLENYCGGGGGQGGGGQGGGGQGGGGGECPPCPAPPVAGPSVFLFPPKPKDTLMISRTPEVTCVVVDVSHEDPEVQFNWYVDGVEVHNAKTKPREEQFNSTFRVVSVLTVVHQDWLNGKEYKCKVSNKGLPAPIEKTISKTKGQPREPQVYTLPPSREEMTKNQVSLTCLVKGFYPSDIAVEWESNGQPENNYKTTPPMLDSDGSFFLYSKLTVDKSRWQQGNVFSCSVMHEALHNHYTQKSLSLSPG
B2: fusion protein 5 (insulin analog 1 + L2 + IgG2 Fc1) (Fc fusion)
chain: FVNQHLCGEHLVEALYLVCGERGFHYGGGGGGSGGGGGIVEQCCESICSLEQLENYCGGGGGQGGGGQGGGGQGGGGQGGGGQECPPCPAPPVAGPSVFLFPPKPKDTLMISRTPEVTCVVVDVSHEDPEVQFNWYVDGVEVHNAKTKPREEQFNSTFRVVSVLTVVHQDWLNGKEYKCKVSNKGLPAPIEKTISKTKGQPREPQVYTLPPSREEMTKNQVSLTCLVKGFYPSDIAVEWESNGQPENNYKTTPPMLDSDGSFFLYSKLTVDKSRWQQGNVFSCSVMHEALHNHYTQKSLSLSPG
B3: fusion protein 8 (insulin analog 1 + L2 + IgG2 Fc1) (Fc fusion)
chain: FVNQHLCGEHLVEALYLVCGERGFHYGGGGGGSGGGGGIVEQCCESICSLEQLENYCGGGGGAGGGGAGGGGAGGGGGECPPCPAPPVAGPSVFLFPPKPKDTLMISRTPEVTCVVVDVSHEDPEVQFNWYVDGVEVHNAKTKPREEQFNSTFRVVSVLTVVHQDWLNGKEYKCKVSNKGLPAPIEKTISKTKGQPREPQVYTLPPSREEMTKNQVSLTCLVKGFYPSDIAVEWESNGQPENNYKTTPPMLDSDGSFFLYSKLTVDKSRWQQGNVFSCSVMHEALHNHYTQKSLSLSPG
B4: fusion protein 3 (insulin analog 3 + L2 + IgG2 Fc1) (Fc fusion)
chain: B3 chain with E9S, Y16H, E45T, G58N, A63Q, A68Q, A73Q
B5: fusion protein 9 (insulin analog 6 + L2 + IgG2 Fc1) (Fc fusion)
chain: B3 chain with G58N, G59H, A63Q, A68Q, A73Q
B6: fusion protein 2 (insulin analog 2 + L2 + IgG2 Fc1) (Fc fusion)
chain: B3 chain with E9S, E45H, A63Q, A68Q, A73Q
B7: fusion protein 4 (insulin analog 4 + L2 + IgG2 Fc1) (Fc fusion)
chain: B3 chain with N3K, A63Q, A68Q, A73Q
B8: fusion protein 1 (insulin analog 1 + L2 + IgG2 Fc1) (Fc fusion)
chain: B3 chain with A63Q, A68Q, A73Q
B9: LY3209590 (Fc fusion)
chain: B3 chain with E9S, Y16E, E45T, I47T, E51D, A63Q, A68Q, A73Q
B10: fusion protein 7 (insulin analog 1 + L2 + IgG2 Fc1) (Fc fusion)
chain: FVNQHLCGEHLVEALYLVCGERGFHYGGGGGGSGGGGGIVEQCCESICSLEQLENYCGPGPQPGPQPGPQPGPQPGPQPGPQPGPQPGPQECPPCPAPPVAGPSVFLFPPKPKDTLMISRTPEVTCVVVDVSHEDPEVQFNWYVDGVEVHNAKTKPREEQFNSTFRVVSVLTVVHQDWLNGKEYKCKVSNKGLPAPIEKTISKTKGQPREPQVYTLPPSREEMTKNQVSLTCLVKGFYPSDIAVEWESNGQPENNYKTTPPMLDSDGSFFLYSKLTVDKSRWQQGNVFSCSVMHEALHNHYTQKSLSLSPG

Target: Type B human insulin receptor (hIR-B) (human), P06213
Experiment: cell-based or functional assay

Binder | Activity of human insulin receptor subtype B (EC50), autophosphorylation in CHO-K1-hIRB cells (HTRF phospho-Y1150/1151) [nM]
B1 | 328
B2 | 182
B3 | 326
B4 | 4.57
B5 | 120
B6 | 2.68
B7 | 288
B8 | 422
B9 | 116
B10 | 275
